{"source": "IntAct's records for PubMed 9341158", "key": {"ap2m1_rat Ap2m1": {"biological_target": "ap2m1_rat Ap2m1 (UniProt P84092)", "sequence (P84092 whole entry)": "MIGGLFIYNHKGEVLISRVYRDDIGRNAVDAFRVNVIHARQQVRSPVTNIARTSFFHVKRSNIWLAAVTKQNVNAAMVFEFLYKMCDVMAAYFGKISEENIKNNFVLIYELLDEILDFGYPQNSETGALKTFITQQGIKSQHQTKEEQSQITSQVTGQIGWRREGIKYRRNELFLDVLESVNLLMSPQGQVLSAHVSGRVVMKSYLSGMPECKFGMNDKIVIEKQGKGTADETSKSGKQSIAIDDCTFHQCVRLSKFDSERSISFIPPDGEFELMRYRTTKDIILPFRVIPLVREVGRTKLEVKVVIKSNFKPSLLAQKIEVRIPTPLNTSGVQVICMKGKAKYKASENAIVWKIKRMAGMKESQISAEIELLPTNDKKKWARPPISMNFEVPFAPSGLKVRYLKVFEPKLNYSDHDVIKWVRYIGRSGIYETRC"}, "ap1m1_human AP1M1": {"biological_target": "ap1m1_human AP1M1 (UniProt Q9BXS5)", "sequence (Q9BXS5 whole entry)": "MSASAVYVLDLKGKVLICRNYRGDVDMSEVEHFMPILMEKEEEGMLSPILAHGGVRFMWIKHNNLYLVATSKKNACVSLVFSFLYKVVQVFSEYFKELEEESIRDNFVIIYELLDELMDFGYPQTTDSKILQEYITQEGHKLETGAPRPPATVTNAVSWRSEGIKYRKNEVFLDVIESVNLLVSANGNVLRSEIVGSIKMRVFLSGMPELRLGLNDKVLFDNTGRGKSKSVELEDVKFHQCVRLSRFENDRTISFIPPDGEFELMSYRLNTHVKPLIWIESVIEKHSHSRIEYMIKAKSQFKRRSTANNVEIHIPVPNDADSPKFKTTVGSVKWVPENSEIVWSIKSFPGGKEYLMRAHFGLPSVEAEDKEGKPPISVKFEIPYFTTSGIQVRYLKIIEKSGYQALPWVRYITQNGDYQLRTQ"}}}
{"substance": "Trans-Golgi network integral membrane protein TGN38 (Rattus norvegicus (Rat)), P19814 Y350A", "values": [{"measurement": "effect of a mutation on the interaction", "setting": "ap2m1_rat Ap2m1", "value": "decreasing interaction"}, {"measurement": "effect of a mutation on the interaction", "setting": "ap1m1_human AP1M1", "value": "decreasing interaction"}]}
